Read-outs that look alike come from different tables or passages of the source.
What was measured:
[1] = target: T1, HIV-1 nucleocapsid protein NC (wild type) (HIV-1 pNL4-3, UniProt P12493 378-432); assay: competition
[2] = target: T1, HIV-1 nucleocapsid protein NC (wild …); assay: SPR
[3] = target: T1, HIV-1 nucleocapsid protein NC (wild …); assay: tryptophan fluorescence quenching
[4] = target: T1, HIV-1 nucleocapsid protein NC (wild …); assay: competition; remark: listed apart in the source
[5] = target: T1, HIV-1 nucleocapsid protein NC (wild …); assay: tryptophan fluorescence quenching; remark: listed apart in the source

B1: (A)30 (ssDNA)
DNA: AAAAAAAAAAAAAAAAAAAAAAAAAAAAAA
IC50 [1]: 6680 ± 785 nM

B2: (A)8 (ssDNA)
DNA: AAAAAAAA
binding result [2]: no binding

B3: (TG)4 (ssDNA)
DNA: TGTGTGTG
Kd [3]: 4.7 ± 0.67 nM | IC50 [4]: 264 ± 101 nM | Kd [5]: 3.4 ± 0.07 nM

B4: (TG)10 (ssDNA)
DNA: TGTGTGTGTGTGTGTGTGTG
IC50 [1]: 37 ± 2.73 nM

Source: PMC1351370
